The supplement of paper PMC10126150
± gives the standard deviation of the averaged measurements.

tested on: ATP; assay: switch fluorescence ratio, 500 uM ATP over buffer (Cy3 cluster intensity, sum of 5 cycles each) (fold (ratio)); higher = stronger signal-on switching upon ATP binding; sequences stand for … in TCGTCGGCAGCGTCAGATGTGTATAAGAGACAGTTTTTTTTTTTTTTTTTTTTTTTTT…TC; details: aptamer strand: ATP DNA aptamer (quencher-CACCTGGGGGAGTATTGCGGAGGAAGG + anchor), 100 nM annealed; ATP concentration: 500 uM
Procedure, shortened: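 Values give the fluorescence ratio for each switch-domain sequence, averaged from per-cluster ratios of summed target-cycle to summed buffer-cycle Cy3 intensity. The Cy3-labelled switching-strand clusters sat on a modified Illumina MiSeq flow-cell, were annealed to 100 nM quencher-labelled ATP aptamer, and were imaged in selection buffer, then after 15 min with 500 uM ATP at 22 °C. Five cycles ran with NaOH stripping and re-annealing between them, and clusters outside 100-1000 RFU were excluded.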
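Also: ATP exposure 15 min at 22 °C before imaging.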

In order of falling switch fluorescence ratio:
1. GGCAATTCTC  3.9 ± 0.31
2. GGGAACGGAA  2.4 ± 1.8
3. GGCGCAAAGC  1.487 ± 0.013
4. GGCCCCATGC  1.24 ± 0.034
5. GGGACTTTAC  1.18 ± 0.038
6. GGGAAAGAGC  1.151 ± 0.0064
7. GGGAAGCCGT  1.14 ± 0.23
8. GGCCTACCGC  1.13 ± 0.036
9. GGGAAAGCAC  1.12 ± 0.021
10. GGGAAGTCAC  1.121 ± 0.0039
11. GGCTGGGGGT  1.1 ± 0.07
12. GGCTTTACCT  1.101 ± 0.0097
13. GGGAGCAAGG  1.1 ± 0.018
14. GGCACTAGAC  1.09 ± 0.11
15. GGGAAGGGTG  1.08 ± 0.089
16. GGGAGGCAGG  1.07 ± 0.029
17. GGCACCTTAT  1.06 ± 0.034
18. GGCTTTTTAC  1.06 ± 0.036
19. GGCCTGGACG  1.05 ± 0.015
20. GGGAAGGTAC  1.047 ± 0.0014
21. GGATGACGTC  1.035 ± 0.0091
22. GGATGTGCTG  1.04 ± 0.049
23. GGCAATTAGG  1.04 ± 0.048
24. GGCCAGGAGA  1.04 ± 0.021
25. GGCCTTTTAA  1.04 ± 0.029
26. GGCTACGAGA  1.04 ± 0.018
27. GGCTTTTACT  1.04 ± 0.019
28. GGATCCGAGC  1.03 ± 0.033
29. GGATGGTTGC  1.03 ± 0.021
30. GGCATCTGGG  1.026 ± 0.0011
31. GGCCGGATAG  1.03 ± 0.021
32. GGCCGGTTGC  1.03 ± 0.071
33. GGCGGAGCTA  1.03 ± 0.049
34. GGCGGCGGGG  1.03 ± 0.049
35. GGCGGGGGAG  1.03 ± 0.021
36. GGCGTCCTGG  1.03 ± 0.029
37. GGCGTTTGTC  1.03 ± 0.032
38. GGCTACTGGA  1.03 ± 0.095
39. GGCTGTACTT  1.03 ± 0.047
40. GGGACTTAAC  1.03 ± 0.014
41. GGGAGCCGGG  1.03 ± 0.015
42. GGATCACTTA  1.02 ± 0.023
43. GGATTAGGGC  1.02 ± 0.041
44. GGATTTACGT  1.02 ± 0.023
45. GGCAGAGATG  1.02 ± 0.046
46. GGCAGGATAT  1.016 ± 0.0056
47. GGCCAAGGGA  1.016 ± 0.0069
48. GGCCCGGGGA  1.02 ± 0.042
49. GGCCGATCAT  1.02 ± 0.04
50. GGCCGTTTGA  1.02 ± 0.048
51. GGCGCAAGCT  1.02 ± 0.025
52. GGCGCGTTAG  1.02 ± 0.06
53. GGCGGGGTGC  1.016 ± 0.0073
54. GGCGTAGTGC  1.02 ± 0.016
55. GGCGTGGGGA  1.02 ± 0.017
56. GGCGTTTTTG  1.02 ± 0.046
57. GGGACAAGTC  1.023 ± 0.0067
58. GGGACGGGTG  1.02 ± 0.025
59. GGGAGCCACG  1.02 ± 0.036
60. GGGAGGGGTG  1.02 ± 0.064
61. GGATATTTTT  1.01 ± 0.016
62. GGATGATGGG  1.01 ± 0.046
63. GGATGCTAGG  1.01 ± 0.048
64. GGATTGGGCA  1.01 ± 0.021
65. GGATTTTGGG  1.01 ± 0.028
66. GGCAACGGGG  1.01 ± 0.036
67. GGCAATTGGA  1.01 ± 0.011
68. GGCACATTTT  1.01 ± 0.022
69. GGCAGAAAAT  1.01 ± 0.032
70. GGCAGAAAGT  1.014 ± 0.0027
71. GGCAGACGGT  1.006 ± 0.0016
72. GGCCAAATCC  1.006 ± 0.0056
73. GGCCGAGGGG  1.01 ± 0.03
74. GGCGGAAGTC  1.01 ± 0.013
75. GGCGGGACGG  1.01 ± 0.033
76. GGCGGGGTCG  1.01 ± 0.038
77. GGCGTAAAAG  1.01 ± 0.038
78. GGCGTAAGCT  1.012 ± 0.0095
79. GGCGTAAGGG  1.01 ± 0.019
80. GGCTAATGCG  1.01 ± 0.036
81. GGCTAGCCAG  1.01 ± 0.011
82. GGCTGGACGG  1.01 ± 0.011
83. GGCTTGGCCC  1.015 ± 0.0063
84. GGCTTGGGGA  1.01 ± 0.036
85. GGGAAAAATT  1.013 ± 0.006
86. GGGAAAGTGG  1.012 ± 0.008
87. GGGAAGGGGT  1.01 ± 0.055
88. GGGAGCGTTG  1.01 ± 0.016
89. GGGAGGGGGC  1.01 ± 0.075
90. GGATCATGTG  1.004 ± 0.0049
91. GGATTTTTTT  1 ± 0.032
92. GGCATATGTT  1 ± 0.021
93. GGCATCGAAG  1 ± 0.027
94. GGCCTATAAC  1 ± 0.021
95. GGCGGCCGGA  1.002 ± 0.0084
96. GGCGGCTTGG  1.005 ± 0.0031
97. GGCTATCTTT  1 ± 0.029
98. GGCTATGGGG  1 ± 0.013
99. GGCTGCGCGG  1 ± 0.032
100. GGCTTGCTAG  1.001 ± 0.0046
101. GGGAAAAGTT  1 ± 0.04
102. GGGAAATGTG  1 ± 0.023
103. GGGAAGTTCA  1 ± 0.029
104. GGGAATTTTC  1.004 ± 0.0074
105. GGGACATTAT  1 ± 0.02
106. GGGACCTTTT  1 ± 0.032
107. GGGACTATGA  1 ± 0.021
108. GGGAGCCTAT  1 ± 0.042
109. GGGAGGGCA  1 ± 0.011
110. GGATGACTGG  0.9993 ± 0.0061
111. GGCGAAGGAG  0.999 ± 0.011
112. GGCGGATATT  0.9975 ± 0.0069
113. GGCGGGTTGG  0.998 ± 0.048
114. GGCTTAAGAT  0.998 ± 0.017
115. GGGAACACTT  0.998 ± 0.025
116. GGGAATAACT  0.998 ± 0.037
117. GGATTTTTGT  0.997 ± 0.022
118. GGCATCTAAG  0.997 ± 0.019
119. GGCTGTATTT  0.9965 ± 0.0031
120. GGCCAAAGGG  0.9965 ± 0.0036
121. GGCCTGGGGT  0.996 ± 0.029
122. GGGAAACGGG  0.995 ± 0.011
123. GGATATGTTG  0.994 ± 0.019
124. GGCGTCCTTT  0.994 ± 0.031
125. GGCTGAAGTT  0.994 ± 0.022
126. GGCTTACAGT  0.9941 ± 0.0061
127. GGCTTTGGAC  0.994 ± 0.055
128. GGGAAGGTCT  0.994 ± 0.03
129. GGATTCAAAG  0.993 ± 0.015
130. GGCCGAGAGG  0.993 ± 0.053
131. GGATGTTATT  0.9915 ± 0.0094
132. GGATTGGTAA  0.9919 ± 0.00028
133. GGCGCCGGCT  0.992 ± 0.079
134. GGATCTTAAG  0.991 ± 0.035
135. GGATGTTCGT  0.9911 ± 0.0083
136. GGCGCATGGA  0.991 ± 0.023
137. GGCTTTGTCC  0.991 ± 0.032
138. GGGAATGGGC  0.991 ± 0.066
139. GGATGAGTGC  0.99 ± 0.023
140. GGCATTATAA  0.99 ± 0.025
141. GGGAATGTTA  0.9902 ± 0.007
142. GGATTTGCCA  0.989 ± 0.038
143. GGCTTCTGGG  0.98911 ± 0.00037
144. GGGAAAGGAG  0.989 ± 0.035
145. GGGAGCCCGG  0.989 ± 0.038
146. GGCATTGAGG  0.988 ± 0.04
147. GGGAGGGAGG  0.988 ± 0.021
148. GGATATGGTT  0.987 ± 0.034
149. GGATTGTGAG  0.987 ± 0.042
150. GGGAGAGGGG  0.987 ± 0.02
151. GGATTTCGTG  0.986 ± 0.024
152. GGCGTAGTCA  0.9855 ± 0.0022
153. GGGAAAGGTA  0.986 ± 0.011
154. GGGAAATCGG  0.986 ± 0.014
155. GGGACTTTTG  0.986 ± 0.15
156. GGGAGGGCAA  0.986 ± 0.013
157. GGCCGGTGAA  0.9843 ± 0.0045
158. GGCGTTCGCT  0.984 ± 0.026
159. GGCTGTAAGT  0.9844 ± 0.0066
160. GGATTGGATG  0.983 ± 0.046
161. GGCCATTGTG  0.982 ± 0.023
162. GGCGGGGACC  0.982 ± 0.025
163. GGCTTAAAAA  0.982 ± 0.021
164. GGGACTATCA  0.982 ± 0.014
165. GGATTTGGGT  0.981 ± 0.017
166. GGCGAGACGC  0.981 ± 0.031
167. GGCTGGGCAG  0.981 ± 0.035
168. GGCGTGTGCG  0.98 ± 0.039
169. GGCTCACGGT  0.98015 ± 0.00082
170. GGGAAGAGGA  0.979 ± 0.025
171. GGGAAGTTTT  0.978 ± 0.027
172. GGGAATAAGC  0.978 ± 0.034
173. GGGAATGTTT  0.978 ± 0.03
174. GGATGACCTA  0.976 ± 0.021
175. GGATTTGAGT  0.976 ± 0.015
176. GGATCGAGAC  0.9755 ± 0.0034
177. GGATGGGGTC  0.975 ± 0.02
178. GGCGCTTGTT  0.975 ± 0.034
179. GGGAAATGGG  0.9747 ± 0.0087
180. GGCATTCGTG  0.9743 ± 0.0049
181. GGATGCATTG  0.972 ± 0.011
182. GGATGGTTCG  0.972 ± 0.023
183. GGATTGAATG  0.972 ± 0.025
184. GGCGGGAATT  0.972 ± 0.031
185. GGATTCTAGG  0.969 ± 0.02
186. GGATTCTGTG  0.969 ± 0.018
187. GGCGGGGGCC  0.969 ± 0.016
188. GGCGCAGCTG  0.96511 ± 0.0006
189. GGATTAGTGA  0.964 ± 0.036
190. GGATTCTGGG  0.963 ± 0.042
191. GGCGCTTATT  0.963 ± 0.014
192. GGGACTGCGT  0.9624 ± 0.0072
193. GGCTACCAGT  0.96 ± 0.038
194. GGATGAGGGA  0.957 ± 0.029
195. GGCGGATATA  0.9553 ± 0.0058
196. GGGAAGTCTG  0.955 ± 0.024
197. GGATGATCGT  0.954 ± 0.029
198. GGATGTCCAG  0.947 ± 0.028
199. GGATGGACTG  0.937 ± 0.035
200. GGGAGGCATG  0.936 ± 0.13
